Results on 2 molecules are retold here after paper PMC7644020.

The target of one experiment is cFN^ΔRGD (mouse) (UniProt P11276).

Chain of cFN^RGE (mouse), P11276 (P11276 33-2477): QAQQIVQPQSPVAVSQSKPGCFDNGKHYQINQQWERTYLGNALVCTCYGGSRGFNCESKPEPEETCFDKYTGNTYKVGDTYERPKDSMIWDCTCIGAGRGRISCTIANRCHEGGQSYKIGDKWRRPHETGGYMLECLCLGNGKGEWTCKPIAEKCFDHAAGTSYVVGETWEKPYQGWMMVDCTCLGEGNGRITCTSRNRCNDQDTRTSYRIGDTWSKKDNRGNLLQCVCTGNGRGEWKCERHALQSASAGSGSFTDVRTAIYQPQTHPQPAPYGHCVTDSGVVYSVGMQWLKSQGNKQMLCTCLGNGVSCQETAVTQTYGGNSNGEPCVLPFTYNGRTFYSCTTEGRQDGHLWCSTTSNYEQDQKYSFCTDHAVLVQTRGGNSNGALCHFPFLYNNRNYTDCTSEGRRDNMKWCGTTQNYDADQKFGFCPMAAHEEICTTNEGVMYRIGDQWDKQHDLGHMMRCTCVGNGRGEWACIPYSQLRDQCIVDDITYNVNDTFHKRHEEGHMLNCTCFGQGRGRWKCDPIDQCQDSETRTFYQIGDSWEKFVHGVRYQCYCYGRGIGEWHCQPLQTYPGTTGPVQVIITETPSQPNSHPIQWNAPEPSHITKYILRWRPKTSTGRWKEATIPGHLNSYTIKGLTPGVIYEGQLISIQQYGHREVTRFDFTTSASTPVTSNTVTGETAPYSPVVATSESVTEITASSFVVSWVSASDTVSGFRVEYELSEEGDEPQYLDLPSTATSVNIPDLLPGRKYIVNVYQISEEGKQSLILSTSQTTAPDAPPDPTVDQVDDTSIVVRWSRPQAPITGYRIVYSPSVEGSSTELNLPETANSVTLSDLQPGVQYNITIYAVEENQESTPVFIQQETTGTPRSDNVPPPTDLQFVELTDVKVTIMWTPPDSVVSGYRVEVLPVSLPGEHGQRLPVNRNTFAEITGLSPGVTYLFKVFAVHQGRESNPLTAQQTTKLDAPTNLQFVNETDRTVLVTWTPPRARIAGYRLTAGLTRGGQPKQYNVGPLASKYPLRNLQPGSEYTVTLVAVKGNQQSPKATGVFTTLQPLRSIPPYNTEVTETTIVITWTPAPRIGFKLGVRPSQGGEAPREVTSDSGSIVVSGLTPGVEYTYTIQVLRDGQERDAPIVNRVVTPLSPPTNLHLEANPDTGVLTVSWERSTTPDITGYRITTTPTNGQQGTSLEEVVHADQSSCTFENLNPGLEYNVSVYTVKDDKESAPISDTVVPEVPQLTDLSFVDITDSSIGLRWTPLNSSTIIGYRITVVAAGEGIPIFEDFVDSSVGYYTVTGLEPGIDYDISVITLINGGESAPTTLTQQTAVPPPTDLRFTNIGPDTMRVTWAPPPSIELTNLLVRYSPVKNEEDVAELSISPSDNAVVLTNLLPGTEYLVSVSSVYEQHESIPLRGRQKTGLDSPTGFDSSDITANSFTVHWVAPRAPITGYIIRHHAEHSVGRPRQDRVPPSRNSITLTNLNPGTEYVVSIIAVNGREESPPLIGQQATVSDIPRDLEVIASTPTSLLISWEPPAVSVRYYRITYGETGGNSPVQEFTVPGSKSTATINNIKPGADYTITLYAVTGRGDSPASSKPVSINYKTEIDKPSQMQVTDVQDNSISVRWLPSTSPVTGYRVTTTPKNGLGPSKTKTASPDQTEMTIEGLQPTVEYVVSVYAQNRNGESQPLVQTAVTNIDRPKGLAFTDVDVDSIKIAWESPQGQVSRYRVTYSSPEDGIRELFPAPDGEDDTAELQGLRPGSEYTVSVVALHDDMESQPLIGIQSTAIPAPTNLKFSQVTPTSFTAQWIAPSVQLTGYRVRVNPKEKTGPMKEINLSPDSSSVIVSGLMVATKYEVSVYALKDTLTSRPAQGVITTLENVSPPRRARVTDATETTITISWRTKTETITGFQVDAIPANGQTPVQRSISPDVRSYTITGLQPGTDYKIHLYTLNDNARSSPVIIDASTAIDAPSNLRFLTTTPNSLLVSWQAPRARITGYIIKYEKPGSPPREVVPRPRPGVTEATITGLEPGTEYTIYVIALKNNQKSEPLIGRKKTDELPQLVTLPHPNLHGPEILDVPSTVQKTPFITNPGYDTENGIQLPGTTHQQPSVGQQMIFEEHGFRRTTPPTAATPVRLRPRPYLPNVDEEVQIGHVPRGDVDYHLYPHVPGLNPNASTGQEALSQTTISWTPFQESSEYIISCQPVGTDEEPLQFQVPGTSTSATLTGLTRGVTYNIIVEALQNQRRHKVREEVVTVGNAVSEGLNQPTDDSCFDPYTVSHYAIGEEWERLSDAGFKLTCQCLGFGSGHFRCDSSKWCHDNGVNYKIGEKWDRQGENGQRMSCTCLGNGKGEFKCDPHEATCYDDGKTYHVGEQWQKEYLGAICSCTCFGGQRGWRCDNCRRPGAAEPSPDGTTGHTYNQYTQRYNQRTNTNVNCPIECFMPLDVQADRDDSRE

Molecule “α5β1 integrin on pKO-β1 fibroblasts (from UniProt P11688 45-1053; P09055 21-798) (receptor)” yielded a spreading area of the adherent fibroblasts on the purified cFN variant in the experiment with cFN^ΔRGD (mouse) of 136 µm^2.

B1: α5β1 integrin on pKO-β1 fibroblasts, P11688 45-1053; P09055 21-798 (receptor)
chain 1: FNLDAEAPAVLSGPPGSLFGFSVEFYRPGRDGVSVLVGAPKANTSQPGVLQGGAVYVCPWGTSPIQCTTIQFDSKGSRILESSLYSAKGEEPVEYKSLQWFGATVRAHGSSILACAPLYSWRTEKDPQNDPVGTCYLSTENFTRILEYAPCRSDFGSAAGQGYCQGGFSAEFTKTGRVVLGGPGSYFWQGQILSATQEQISESYYPEYLINPVQGQLQTRQASSVYDDSYLGYSVAVGEFSGDDTEDFVAGVPKGNLTYGYVTVLNGSDIHSLYNVSGEQMASYFGYAVAATDTNGDGLDDLLVGAPLLMERTADGRPQEVGRVYIYLQRPAGIDPTPTLTLTGQDEFSRFGSSLTPLGDLDQDGYNDVAIGAPFGGEAQQGVVFIFPGGPGGLSTKPSQVLQPLWAAGRTPDFFGSALRGGRDLDGNGYPDLIVGSFGVDKALVYRGRPIISASASLTIFPSMFNPEERSCSLEGNPVSCINLSFCLNASGKHVPNSIGFEVELQLDWQKQKGGVRRALFLTSKQATLTQTLLIQNGAREDCREMKIYLRNESEFRDKLSPIHIALNFSLDPKAPMDSHGLRPVLHYQSKSRIEDKAQILLDCGEDNICVPDLQLDVYGEKKHVYLGDKNALNLTFHAQNLGEGGAYEAELRVTAPLEAEYSGLVRHPGNFSSLSCDYFAVNQSRQLVCDLGNPMKAGTSLWGGLRFTVPHLQDTKKTIQFDFQILSKNLNNSQSNVVSFPLSVEAQAQVSLNGVSKPEAVIFPVSDWNPQDQPQKEEDLGPAVHHVYELINQGPSSISQGVLELSCPQALEGQQLLYVTKVTGLSNCTSNYTPNSQGLELDPETSPHHLQKREAPGRSSTASGTQVLKCPEAKCFRLRCEFGPLHRQESRSLQLHFRVWAKTFLQREYQPFSLQCEAVYEALKMPYQILPRQLPQKKLQVATAVQWTKAEGSNGVPLWIIILAILFGLLLLGLLIYVLYKLGFFKRSLPYGTAMEKAQLKPPATSDA
chain 2: QTDKNRCLKANAKSCGECIQAGPNCGWCTNTTFLQEGMPTSARCDDLEALKKKGCQPSDIENPRGSQTIKKNKNVTNRSKGMAEKLRPEDITQIQPQQLLLKLRSGEPQKFTLKFKRAEDYPIDLYYLMDLSYSMKDDLENVKSLGTDLMNEMRRITSDFRIGFGSFVEKTVMPYISTTPAKLRNPCTSEQNCTSPFSYKNVLSLTDRGEFFNELVGQQRISGNLDSPEGGFDAIMQVAVCGSLIGWRNVTRLLVFSTDAGFHFAGDGKLGGIVLPNDGQCHLENNVYTMSHYYDYPSIAHLVQKLSENNIQTIFAVTEEFQPVYKELKNLIPKSAVGTLSGNSSNVIQLIIDAYNSLSSEVILENSKLPDGVTINYKSYCKNGVNGTGENGRKCSNISIGDEVQFEISITANKCPNKESETIKIKPLGFTEEVEVVLQFICKCNCQSHGIPASPKCHEGNGTFECGACRCNEGRVGRHCECSTDEVNSEDMDAYCRKENSSEICSNNGECVCGQCVCRKRDNTNEIYSGKFCECDNFNCDRSNGLICGGNGVCRCRVCECYPNYTGSACDCSLDTGPCLASNGQICNGRGICECGACKCTDPKFQGPTCETCQTCLGVCAEHKECVQCRAFNKGEKKDTCAQECSHFNLTKVESREKLPQPVQVDPVTHCKEKDIDDCWFYFTYSVNGNNEAIVHVVETPDCPTGPDIIPIVAGVVAGIVLIGLALLLIWKLLMIIHDRREFAKFEKEKMNAKWDTGENPIYKSAVTTVVNPKYEGK
On to B1, for which the spreading area of the few adherent fibroblasts on the purified cFN variant with cFN^RGE (mouse), P11276 came out at 419 µm^2.
